A word on the EC50: it is the midpoint of the concentration-response curve. Low readings indicate an effect from little substance, high ones a need for much substance. As a reminder, the Kd is the free concentration of one partner at which half of the binding sites on the other are occupied at equilibrium, for simple one-to-one binding.

Some results are limits rather than exact numbers.

The target of assay [1] is T1, Mouse MARCO, full length, on cells (mouse, UniProt Q60754 1-518).
T1 construct: whole, on cells; the cell type is named under assay; also called muMARCO; MuMARCO
T1 sequence (looked up): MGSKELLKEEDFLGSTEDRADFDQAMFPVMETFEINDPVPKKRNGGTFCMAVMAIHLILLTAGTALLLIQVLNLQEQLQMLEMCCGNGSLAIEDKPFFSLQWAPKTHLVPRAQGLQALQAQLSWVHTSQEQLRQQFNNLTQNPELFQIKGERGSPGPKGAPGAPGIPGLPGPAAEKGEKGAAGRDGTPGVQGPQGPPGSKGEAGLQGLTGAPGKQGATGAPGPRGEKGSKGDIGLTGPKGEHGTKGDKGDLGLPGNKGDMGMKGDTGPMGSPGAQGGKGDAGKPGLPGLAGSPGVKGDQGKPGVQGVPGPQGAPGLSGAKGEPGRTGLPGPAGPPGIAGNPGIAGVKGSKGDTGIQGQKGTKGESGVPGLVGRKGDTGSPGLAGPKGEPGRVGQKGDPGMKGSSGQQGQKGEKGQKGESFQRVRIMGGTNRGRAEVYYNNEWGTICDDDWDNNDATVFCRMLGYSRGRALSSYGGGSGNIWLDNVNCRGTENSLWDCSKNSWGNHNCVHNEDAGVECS
Put plainly: flow cytometry, 293T cells expressing mouse MARCO. In general terms: Flow cytometry measures light scatter and fluorescence of single cells or particles in a stream.

Assay [2] addresses T2, chimera Mouse MARCO CLD-human MARCO SRCR, on cells.
T2 chain: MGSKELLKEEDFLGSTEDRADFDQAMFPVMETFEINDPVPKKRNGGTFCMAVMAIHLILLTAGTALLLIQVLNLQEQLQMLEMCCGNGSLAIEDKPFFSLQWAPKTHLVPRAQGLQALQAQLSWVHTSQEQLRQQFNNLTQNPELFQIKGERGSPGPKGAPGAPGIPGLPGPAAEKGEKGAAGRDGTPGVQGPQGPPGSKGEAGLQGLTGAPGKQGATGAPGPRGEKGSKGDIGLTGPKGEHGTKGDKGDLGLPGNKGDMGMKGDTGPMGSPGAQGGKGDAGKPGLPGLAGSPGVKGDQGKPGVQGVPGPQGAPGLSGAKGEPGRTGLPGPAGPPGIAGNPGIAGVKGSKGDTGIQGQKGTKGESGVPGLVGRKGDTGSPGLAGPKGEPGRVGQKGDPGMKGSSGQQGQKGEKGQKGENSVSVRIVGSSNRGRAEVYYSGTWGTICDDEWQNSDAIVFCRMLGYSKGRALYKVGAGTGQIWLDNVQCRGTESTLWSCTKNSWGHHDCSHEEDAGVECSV
The assay is described as follows: flow cytometry, cells overexpressing HuSRCR-mouse CLD chimera.

In assay [3] the target is T3, N-terminal his-tagged mouse MARCO protein, recombinant (mouse, UniProt Q60754 150-518).
T3 construct: The entry holds the His tag, the CLD and the SRCR domain; also called mMARCO (RG3016); PI-RG-3016
T3 sequence: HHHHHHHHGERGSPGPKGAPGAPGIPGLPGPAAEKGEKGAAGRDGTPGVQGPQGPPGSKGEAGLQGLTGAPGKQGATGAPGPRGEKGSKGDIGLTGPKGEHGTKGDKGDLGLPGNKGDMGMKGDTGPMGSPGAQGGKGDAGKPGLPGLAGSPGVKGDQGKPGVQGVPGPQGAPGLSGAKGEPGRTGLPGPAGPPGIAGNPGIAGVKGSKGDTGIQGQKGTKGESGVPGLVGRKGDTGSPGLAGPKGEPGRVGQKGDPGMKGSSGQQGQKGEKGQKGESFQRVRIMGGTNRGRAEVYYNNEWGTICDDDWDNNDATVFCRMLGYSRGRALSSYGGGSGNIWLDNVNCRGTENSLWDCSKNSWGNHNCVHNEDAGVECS
The assay is described as follows: Biacore.

Assay [4] concerns the target T4, N-terminally polyhistidine tagged human MARCO ECD (147-520), recombinant (human, UniProt Q9UEW3 147-520).
T4 construct: also called PI-RG-3000; recombinant human MARCO; not shown: N-terminal polyhistidine tag
T4 sequence: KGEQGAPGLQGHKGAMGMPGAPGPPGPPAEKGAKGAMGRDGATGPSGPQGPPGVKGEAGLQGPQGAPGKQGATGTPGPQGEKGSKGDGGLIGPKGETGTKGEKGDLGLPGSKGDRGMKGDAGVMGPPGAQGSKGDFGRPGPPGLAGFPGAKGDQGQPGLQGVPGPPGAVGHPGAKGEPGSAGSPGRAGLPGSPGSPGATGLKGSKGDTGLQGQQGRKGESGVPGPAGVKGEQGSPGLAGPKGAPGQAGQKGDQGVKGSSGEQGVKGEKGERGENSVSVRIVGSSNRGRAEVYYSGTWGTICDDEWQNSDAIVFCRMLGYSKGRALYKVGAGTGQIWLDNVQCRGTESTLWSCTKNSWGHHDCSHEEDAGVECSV
The assay is described as follows: Biacore; sample oxidized with 1.5% H2O2 (24 hr, RT). The protocol: (PBS)+1 mM AAPH for 6 h, 0.5 and 1.5% H₂O₂ in PBS for 24 h, which was compared to a previous experiment at 40° C. (PBS)+1 mM AAPH for 6 h. Post treatment the samples were analyzed by LC-MS/MS which identified the % modification on isolated peptides derived from the antibody after trypsin digest.
Binding of the stressed samples to recombinant human MARCO was assessed by Biacore.

For assay [5], the target named is T5, recombinant cynomolgus MARCO protein (cynomolgus, UniProt A0A2K5X0Z2 65-519).
T5 construct: Construct not described; also called cyno MARCO; cynoMARCO
T5 sequence: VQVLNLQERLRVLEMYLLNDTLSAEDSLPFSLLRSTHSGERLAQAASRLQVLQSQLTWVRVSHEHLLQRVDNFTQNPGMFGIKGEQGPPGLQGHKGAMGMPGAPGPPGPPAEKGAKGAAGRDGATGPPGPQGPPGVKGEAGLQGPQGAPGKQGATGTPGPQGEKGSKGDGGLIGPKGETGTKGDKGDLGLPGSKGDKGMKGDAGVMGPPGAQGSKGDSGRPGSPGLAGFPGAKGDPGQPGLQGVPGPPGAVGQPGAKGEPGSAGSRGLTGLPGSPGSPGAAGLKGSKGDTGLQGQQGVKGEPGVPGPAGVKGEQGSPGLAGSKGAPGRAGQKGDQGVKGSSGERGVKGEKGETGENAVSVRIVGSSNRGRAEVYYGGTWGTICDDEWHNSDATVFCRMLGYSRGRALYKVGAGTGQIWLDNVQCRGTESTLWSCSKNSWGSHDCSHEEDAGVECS
The assay is described as follows: Biacore (SPR), recombinant cyno MARCO. On the technique in general: SPR reads the build-up and loss of mass on a sensor chip optically.

The target of assay [6] is T4, N-terminally polyhistidine tagged human …. Put plainly: Biacore (SPR), binding affinity to human MARCO. In a few lines:
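Antibodies were captured by anti-mouse Fc mAb amine-coupled to a CM4 chip (4500 RU target). Running buffer was 10 mM HEPES pH 7.4, 150 mM NaCl, 3 mM EDTA, 0.05% surfactant P20. Injections were at 0.625–10 nM with 90 s association and 600 s dissociation, and constants were fitted in BIAevaluation 3.1.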

B1: PI-HX-3031 (antibody)
heavy: QVQLKESGPGLVQPSQTLSLTCTVSGFSLTSYHVSWVRQPPGKGLEWMGAIWTGGSIAYNSLLKSRLSISRDTSKSQVFLKMNSLQTEDTATYYCARDLSDYYSSYTSFDYWGQGVMVTVSTAETTAPSVYPLAPGTALKSNSMVTLGCLVKGYFPEPVTVTWNSGALSSGVHTFPAVLQSGLYTLTSSVTVPSSTWSSQAVTCNVAHPASSTKVDKKIVPRECNPCGCTGSEVSSVFIFPPKTKDVLTITLTPKVTCVVVDISQNDPEVRFSWFIDDVEVHTAQTHAPEKQSNSTLRSVSELPIVHRDWLNGKTFKCKVNSGAFPAPIEKSISKPEGTPRGPQVYTMAPPKEEMTQSQVSITCMVKGFYPPDIYTEWKMNGQPQENYKNTPPTMDTDGSYFLYSKLNVKKETWQQGNTFTCSVLHEGLHNHHTEKSLSHSP
light: DIQMTQSPASLSTSLGETVSIECLASEGISNDLAWYQQKSGKSPQLLIYAASRLQDGVPSRFSGSGSGTRYSLKISGMQPEDEADYFCQQSYKYPLTFGSGTKLEIKRADAAPTVSIFPPSTEQLATGGASVVCLMNNFYPRDISVKWKIDGTERRDGVLDSVTDQDSKDSTYSMSSTLSLTKADYESHNLYTCEVVHKTSSSPVVKSFNRNEC
notes: Parental rat hybridoma, rat IgG2a
On to B1, for which, in assay [1], the binding result was “no binding”.

B2: PI-3010-AB (antibody, human IgG1, kappa)
heavy: not shown
light: DIQMTQSPASLSTSLGETVSIECLASEGISNDLAWYQQKSGKSPQLLIYAASRLQDGVPSRFSGSGSGTRYSLKISGMQPEDEADYFCQQSYKYPLTFGSGTKLEIKRTVAAPSVFIFPPSDEQLKSGTASVVCLLNNFYPREAKVQWKVDNALQSGNSQESVTEQDSKDSTYSLSSTLTLSKADYEKHKVYACEVTHQGLSSPVTKSFNRGEC
Molecule B2 gave an EC50 in assay [2] of 0.25 nM.

B3: PI-HX-3061 (antibody, rat IgG2a)
heavy: EVQLVESGGGLVQPGSSLKLSCVASKFTFSNYGMNWIRQAPKKGLEWIALIYYNSNNKYYADSVKGRFTISRDNSKNTLYLEMNSLRSEDTAMYYCAKSLTGGSDYFDSWGQGVMVTVSSAETTAPSVYPLAPGTALKSNSMVTLGCLVKGYFPEPVTVTWNSGALSSGVHTFPAVLQSGLYTLTSSVTVPSSTWPSQTVTCNVAHPASSTKVDKKIVPRNCGGDCKPCICTGSEVSSVFIFPPKPKDVLTITLTPKVTCVVVDISQDDPEVHFSWFVDDVEVHTAQTRPPEEQFNSTFRSVSELPILHQDWLNGRTFRCKVTSAAFPSPIEKTISKPEGRTQVPHVYTMSPTKEEMTQNEVSITCMVKGFYPPDIYVEWQMNGQPQENYKNTPPTMDTDGSYFLYSKLNVKKEKWQQGNTFTCSVLHEGLHNHHTEKSLSHSP
light: DVQMTQSPSYLAASPGESVSISCKASKSIGTFLAWYQEKPEKTNKLLIYSGSTLQSGTPSRFSGSGSGTDFTLTIRNLEPEDFAVYYCQQHDEYPFTFGSGTKLEIKRADAAPTVSIFPPSTEQLATGGASVVCLMNNFYPRDISVKWKIDGTERRDGVLDSVTDQDSKDSTYSMSSTLSLTKADYESHNLYTCEVVHKTSSSPVVKSFNRNEC
notes: Parental rat hybridoma, rat IgG2a; cross reactive with human and mouse MARCO
B3: in assay [3], the Kd is under 0.02 nM.

B4: PI-3015-AB (antibody, human IgG1, kappa)
heavy: not shown
light: DIQMTQSPSSLSASVGDRVTITCRASEGISNDLAWYQQKPGKAPKLLIYAASRLQSGVPSRFSGSGSGTDYTLTISSMQPEDFATYYCQQSYKYPLTFGQGTKLEIKRTVAAPSVFIFPPSDEQLKSGTASVVCLLNNFYPREAKVQWKVDNALQSGNSQESVTEQDSKDSTYSLSSTLTLSKADYEKHKVYACEVTHQGLSSPVTKSFNRGEC
Take B4: the Kd is 1.07 nM in assay [4], 1.65 nM in assay [5] and 0.51 nM in assay [6].
